For assay [1], the target named is RAD51 (UniProt Q06609). Nature of the assay: co-IP of FLAG-UHRF1 and RAD51-HA. Conditions: reference: wild type; sites S661.
In assay [2] the target is T1, His-UHRF1 (UniProt Q96T88-1 1-793).
T1 construct: UHRF1; last residue R793; source: E. coli BL21(DE3), purified (Ni-NTA agarose)
T1 sequence (looked up): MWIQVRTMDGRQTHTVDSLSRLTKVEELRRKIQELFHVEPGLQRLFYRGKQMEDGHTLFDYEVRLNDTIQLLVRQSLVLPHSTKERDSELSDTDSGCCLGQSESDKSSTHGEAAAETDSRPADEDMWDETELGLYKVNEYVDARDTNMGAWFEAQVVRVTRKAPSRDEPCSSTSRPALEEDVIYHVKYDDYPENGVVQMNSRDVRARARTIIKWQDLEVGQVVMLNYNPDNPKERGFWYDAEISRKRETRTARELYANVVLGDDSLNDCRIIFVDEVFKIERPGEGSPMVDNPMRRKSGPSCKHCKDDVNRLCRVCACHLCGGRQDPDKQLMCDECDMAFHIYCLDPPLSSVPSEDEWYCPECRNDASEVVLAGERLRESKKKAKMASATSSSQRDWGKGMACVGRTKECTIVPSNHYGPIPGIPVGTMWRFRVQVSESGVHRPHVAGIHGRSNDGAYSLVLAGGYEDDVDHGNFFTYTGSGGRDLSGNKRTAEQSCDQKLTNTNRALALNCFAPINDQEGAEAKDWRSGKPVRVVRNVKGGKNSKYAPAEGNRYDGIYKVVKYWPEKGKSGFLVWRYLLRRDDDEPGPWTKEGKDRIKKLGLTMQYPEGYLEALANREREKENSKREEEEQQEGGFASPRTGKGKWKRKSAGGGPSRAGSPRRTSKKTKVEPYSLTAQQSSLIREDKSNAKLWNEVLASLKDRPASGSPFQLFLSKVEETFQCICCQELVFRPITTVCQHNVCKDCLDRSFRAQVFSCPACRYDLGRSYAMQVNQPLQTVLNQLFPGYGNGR
Nature of the assay: pull-down; GST pull-down: GST-RFWD3 on Glutathione resin precipitating His-UHRF1 with His-RAD51 or His-RAD51^R254Q added; His-tagged proteins detected by western blotting. The following applies: both partners purified. A general note: In western blotting, separated proteins are transferred to a membrane and probed.

Assay [3] has as its target T2, GST-UHRF1 (UniProt Q96T88-1 1-793).
T2 construct: UHRF1; source: E. coli BL21(DE3), purified (Glutathione resin)
T2 sequence (looked up): T1 sequence (looked up)
Nature of the assay: pull-down; His pull-down: purified His-RAD51 on Ni-chelated beads, GST-UHRF1 with increasing amounts of GST-RFWD3; Binding Buffer A (50 mM Tris-HCl pH 7.5-8.0, 50 mM NaCl), washes with 20 mM imidazole; western blotting. Conditions: both partners purified.

Assay [4] has as its target T1, His-UHRF1. The assay can be described thus: pull-down; GST pull-down: purified GST-RFWD3 on Glutathione resin, purified His-tagged UHRF1 proteins, 3 h at 4 °C in BCA buffer (20 mM Tris-HCl pH 7.4, 100 mM NaCl); washes with 300 mM NaCl; western blotting. The following applies: both partners purified.

As to UHRF1 (from UniProt Q96T88) S661A, in assay [1], the “binding against the reference” value is given as “stronger”.

B1: His-RAD51 (natural protein, UniProt Q06609 1-339, looked up)
chain: MAMQMQLEANADTSVEEESFGPQPISRLEQCGINANDVKKLEEAGFHTVEAVAYAPKKELINIKGISEAKADKILAEAAKLVPMGFTTATEFHQRRSEIIQITTGSKELDKLLQGGIETGSITEMFGEFRTGKTQICHTLAVTCQLPIDRGGGEGKAMYIDTEGTFRPERLLAVAERYGLSGSDVLDNVAYARAFNTDHQTQLLYQASAMMVESRYALLIVDSATALYRTDYSGRGELSARQMHLARFLRMLLRLADEFGVAVVITNQVVAQVDGAAMFAADPKKPIGGNIIAHASTTRLYLRKGRGETRICKIYDSPCLPEAEAMFAINADGVGDAKD
notes: RAD51 recombinase; also called purified RAD51; source: E. coli BL21(DE3), purified (Ni-NTA agarose)
On to B1, for which the binding result in assay [2] and in assay [3] was “binds” in each case.

B2: GST-RFWD3 (natural protein, UniProt Q6PCD5 1-774, looked up)
chain: MAHEAMEYDVQVQLNHAEQQPAPAGMASSQGGPALLQPVPADVVSSQGVPSILQPAPAEVISSQATPPLLQPAPQLSVDLTEVEVLGEDTVENINPRTSEQHRQGSDGNHTIPASSLHSMTNFISGLQRLHGMLEFLRPSSSNHSVGPMRTRRRVSASRRARAGGSQRTDSARLRAPLDAYFQVSRTQPDLPATTYDSETRNPVSEELQVSSSSDSDSDSSAEYGGVVDQAEESGAVILEEQLAGVSAEQEVTCIDGGKTLPKQPSPQKSEPLLPSASMDEEEGDTCTICLEQWTNAGDHRLSALRCGHLFGYRCISTWLKGQVRKCPQCNKKARHSDIVVLYARTLRALDTSEQERMKSSLLKEQMLRKQAELESAQCRLQLQVLTDKCTRLQRRVQDLQKLTSHQSQNLQQPRGSQAWVLSCSPSSQGQHKHKYHFQKTFTVSQAGNCRIMAYCDALSCLVISQPSPQASFLPGFGVKMLSTANMKSSQYIPMHGKQIRGLAFSSYLRGLLLSASLDNTIKLTSLETNTVVQTYNAGRPVWSCCWCLDEANYIYAGLANGSILVYDVRNTSSHVQELVAQKARCPLVSLSYMPRAASAAFPYGGVLAGTLEDASFWEQKMDFSHWPHVLPLEPGGCIDFQTENSSRHCLVTYRPDKNHTTIRSVLMEMSYRLDDTGNPICSCQPVHTFFGGPTCKLLTKNAIFQSPENDGNILVCTGDEAANSALLWDAASGSLLQDLQTDQPVLDICPFEVNRNSYLATLTEKMVHIYKWE
notes: RFWD3 (ring finger and WD repeat domain 3); source: E. coli BL21(DE3), purified (Glutathione resin)
With B2, the binding result in assay [4] is “binds”.

The values are drawn from PMC12677587, “UHRF1 Controls the Timing of RAD51 Removal During DNA Damage Repair Through Suppressing RFWD3” (Advanced Science, 2025).
